assay: label from the status in PepcDB records

**Q.** For “MTYKITTSESKKEYLYMGSGDTRGESSLVAKPIEIILNKLPHAILAQQQFQKYITSPIYRYLSKLLLFREVAWPESTKDTQKGQVGIFSFQNNYADSATTFRILAHLDEHGYPLPNGAAEKNLPSLFEGFKATVSIIQQRLLLDNVDGATNSDKEKYVQLPDINTGFVNKTYSRIDLTHLLEDVETNVENLSINKTLEMDELTRLDSMINELESRKLKILERVKHIDSKSTNLENDVTLIKDRINFIEEYNLEADREQSLRKQMEEERSSEASSFTQNEEAISSLCDVESKDTRLKDFYKMPHEKSHDKNRQIISETYSRNTTAFRMTIPHGEHGNSITALDFDTPWGTLCSSSYQDRIVKVWDLNHGIQVGELPGHLATVNCMQIDKKNYNMLITGSKDATLKLWDLNLSREIYLDHSPLKEKTEEIVTPCIHNFELHKDEITALSFDSEALVSGSRDKKIFHWDLTTGKCIQQLDLIFTPTHSDIKMPARSLNNGACLLGTEAPMIGALQCYNSALATGTKDGIVRLWDLRVGKPVRLLEGHTDGITSLKFDSEKLVTGSMDNSVRIWDLRTSSILDVIAYDLPVSSLDFDGKLITVGANEGGVNVFNMERDEHWMTPEPPHSLDGDELSRRIAIVKYKDGFLINGHNDGDINVWTL”, which protein production is on record?
**A.** failed

**Q.** Which protein production does the source give for “MTYLVTGATGGLGGYALNYLKELVPMSDIYALVRSKEKGADLKAAGFNIRVGDYSDAESMKQAFAGIDRVLFVSGAPGNRQVEHENVINAAKKAGVSYIAYTSFAGADKSTSALAEDHFFTEKVIEKSGIAHTFLRNNWYFENEMPMIGGALSAGKFVYAAENGKVGWALKREYAEVAAKAVAGAGFPEILELSGPLMTYEELTKALKEATGKDFDVISSDDKGFVENLVSVGLPQPVAEMFLSFQHDIKNDQLDVTSDDFEKALGKPLTNRVDALRELLKLEHHHHHH” here?
**A.** not failed

**Q.** With “MTYLVTGATGGLGGYALNYLKELVPMTDIYALVRSEEKGADLKAAGFNIRIGDYSDAESMKQAFAGIDRVLFVSGAPGNRQVEHENVVNTAKEAGVSYIAYTSFADADNSTSALAADHIFTEKVIEKSGIEHTFLRNNWYFENEMPMIGGALNGGKFVYAAGNGKTGWALKREYAEVAAKAVAGARFPEILELSGPVMTYAELTEALKEATGKDFEVISSDDKGFVENLVNVGMPQPVAEMFLSFQHDIKNNQLDVTSGDFEKALGKPLTNRVDALRELLQ” as the sequence, how does the protein production read?
**A.** failed

**Q.** For “MVADKSKKSKIEEKGEEENLEQIDAELVLSIEKLQEIQDDLEKINEKASDEVLEVEQKYNVIRKPVYDKRNEVIQSIPGFWMTAFLSHPALGDLLTEEDQKIFKYLNSLEVEDAKDVKSGYSITFHFTSNPFFEDAKLTKTFTFLEEGTTKITATPIKWKEGKGLPNGVNHDDKKGNKRALPEESFFTWFTDAQHKEDAGDEIHDEVADIIKEDLWSNPLTYFNNDADEEDFDGDDDGDEEGEEDDDDEEEEDGEE”, which protein production is on record?
**A.** failed

**Q.** For “MVAKQLSIFLENKSGRLTEVTEVLAKENINLSALCIAENADFGILRGIVSDPDKAYKALKDNHFAVNITDVVGISCPNVPGALAKVLGFLSAEGVFIEYMYSFANNNVANVVIRPSNMDKCIEVLKEKKVDLLAASDLYKL”, which protein production is on record?
**A.** not failed

**Q.** For “MVAQLPEPIKIVRRAGDVRIHTFISAFTDDNIANATHIIEGRNKLVLVDGQFLVPYALQFRAYADSLGKEIDRIYLSHRHPDHWFGLGAAFSDIPIHALSETKEFLRQHGQDSLNDHWKLGNLAPKTLVIPEKTVRAGHEIIDGVKYVFDEVVDTEIDFLLTIGLPDVGVFIAQDLIYSGTHLYLTKYMEHWIGVLQGMLLSDYELFLPGHGFPADKNEVAKNIEYLSVAIEAAGHGLTNDAFKRFLLERFPERKCPGIFDIYIPRLFDNASEF”, which protein production is on record?
**A.** failed

**Q.** Which protein production does the source give for “MVAVENVVFVFVAGLLTALATGLGAIPFFLVDEFSDRWNVLLWGLASGIMVAASLFGLVREGLAYGSPVLLVPGVLAGVGLVAVAHELLDDFDQSPKQFEQADFTKLLLILGILTVHSFPEGVAVGVSFAELGLEAATPESAVGIVGVSVPLLAVFMTVAISIHNIPEGTAIAIPLRSLGVSEWKMVWWAVFSSLPQPVGAVIAYYFVTLAKAFLPFGFGFAAGAMVYLVLTEFVPEALEYGDGLPGGGKRELLTGIAVGVLAMVPLAFV” here?
**A.** failed

**Q.** With “MVAVRSAHLNTEGEFVPDAWIASLGIASQQSCERLAETWRYCEQQTQNQPDASLLLWRGIEMVEILSTLSMDNDSMRAALLFPLADANVVDEATLEAAFGKNIVDLVHGVRDMDAIRQLKATQNDSDASEQVDNIRRMLLAMVEDFRCVVIKLAERIAHLREVKDAPEEERVLAAKECTNIYAPLANRLGIGQLKWELEDFCFRYLHPDEYKKIAKLLHERRIDRAQYIDDFVKTLRDAMKEEGVQAEIYGRPKHIYSIWRKMQKKALSFDELFDVRAVRIVVERLQDCYGALGIVHTHYRHMPDEFDDYVANPKPNGYQSIHTVVLGPSGKTLEIQIRTRQMHEDAELGVAAHWKYKEGTAVGGRSGYEGRIAWLRKLLAWQEEVSDSNDVLDEVRSQVFDDRVYVFTPKGDVVDLPAGSTPLDFAYHIHSDIGHRCIGAKIGGRIVPFTYQLHMGDQIEIITQKQPNPSRDWLNPNLGYITTSRGRSKIQNWFRKQDRDKNILAGRQILDDELAHLGVSLKAAEKLLLPRYNVNSLDELLAAIGGGDVRLNQMVNFLQSQLKQPSAEELDREALRQLTQKTHQPPARSNNKDNGRVVVEGVGNLMHHIARCCQPIPGDEITGFITRGRGISIHRADCEQLDELRASSPERIVDAVWGESYSSGYSLVVRVIANDRSGLLRDITTILANEKVNVLGVASRSDTKQQLATIDMDIEIYNLQVLGRVLAKLNQLPDVIDARRQQGA” as the sequence, how does the protein production read?
**A.** failed

**Q.** Which protein production does the source give for “MVDELFCPQCGMLKRRCKCRKRSIRQRNLELLKKVGYKEFLLPLFDTDDEIVLYKVLRPFREKPTEELDFLPSELASCLRKRGIGRLYPFQKEAMIRLMEGRDVVITAPTGFGKTEAFAVPMLWRALHGGKAMVFYPTKALARDQEEKIKFYTSSLGLRAVRFDGDSGREERRAVLSGKCDIILTNPDMVDYHLRNTPAFRRICRELSFIAVDELHTYTGVLGSNMHYLVKRLSRFAEFQIACASATLSNAAEFAEELFDRDFVLVSGEHRKGTLHLIFRYTPSLYSAVREIVTALRNRKIIVFGNSYKSVETINLILRRHGLKSAIHKSGLPKEVREEVEAKFKRGEINIVVSTPTLELGVDIGDVDVVVSELVPYGQMIQRVGRAGRKGQESVGVVILREDDSISTYYRTKPEDYFKEEANGYVERHNEEVMKFQLISMCIEKPVRLEELDRQSAEIMQKLQAQGIVVEREGAFHPTAKAIELSRAFSFRGIGDAVKIYHDGKYIGERALPIAVKELFPGSILVHNGVRYRTVELDLKRLRAEVVELDYGNEITDPLYMTIPRIIEVEDEIEEPVNAVYCSIEINYLVHGYIERDVFDRERKAFHYLDEPVSYTFKTKGFLFSAPFPDPADYEDYYAGSFHALEHVIIETTDAITGGGSREMGGISVPEGDIFVYDASVGGSGLSKLLFKRLRRAFEISKTILESCDCGRVDGCPKCTYSYQCGNNNQPLNRIGALNIAEKVIKGVKRKTDWRKYTDVIEIRYFPLEHHHHHH” here?
**A.** failed

**Q.** For “MVDQSAVGRRFTPVTAHVEAGRLRYFLDTLGETNPVYRDAAAAKVEGFAAPPVPPTYLFCLEMLDNERPFEFLTALEIDLGRVLHGEQSFTYHAPVMVGDTLTFSPQVTSVTDKKGGAMTLIGVATAVTNQHGVHVADTTRTIVVRNGLEHHHHHH”, which protein production is on record?
**A.** not failed

**Q.** Which protein production does the source give for “MVDVLWDEIQNLELGQDYPTLFIPNEAYVMVEDRNRLSLIARPLLPRVQNFNAVINALPRAWGLTAHVHGRILDATYVQLLFQTEIYLLSVQRREVWLFNNWFVASQRWEAAPSLNFVTTIDLWVQMRGIPILYVFEKTELEIAQELGEIISLDFHDATSTQIAYIRVRVRFGITDRLRFFQRITFESGETALIRFQYERLRRIYSCFRFTHNLNYYPYRQRFQSIDRERAVFRDSVLRSSFNSQSQMTDSSLQVPLHPPPRVPSSGDAITSGIMRVFEVGESSRGVQDGESHNNMNLGESSKRKNLVILQRDKESRQHKQQETEQRMGGILKPPKKR” here?
**A.** not failed

**Q.** For “MVEFLNKKKKSAQRPINLNGSFIFILILTFEFERRVKVDTADIFQRTMMLIGEDGLKKLSNVNIAVCGLGGVGSFAFEALVRCGIQNFVILDKDRVSVSNLNRQLIATVSNIGKSKVDIAYERALDINPFVNVVKVQKEINPENVEELLGNTKIDYIVDAIDDVSAKIALIKFAISRGIKIISSMGMGNRLNPSLLRISDIYSTKNCPLAKKIRSILRKEGIKKLKVVYSEEKPLKPDYKFLKEKTQKAHVPGSISFVPPVAGFLMAYEVVKDLLGW”, which protein production is on record?
**A.** failed
